Consider two molecules from patent publication US20210238279A1 (Johns Hopkins, published 2021).

Assay [1] deals with T1, human ZnT8-His (human, UniProt Q8IWU4-2 1-320, limits assumed).
T1 construct: Over-expressed in HEK293 cells, solubilized with DDM and immobilized on Ni-NTA plates (native or unfolded with 2% SDS), or SDS-denatured on immunoblots; also called human ZnT8 with C-terminal poly-histidine tag; not shown: C-terminal poly-histidine tag
T1 sequence (looked up): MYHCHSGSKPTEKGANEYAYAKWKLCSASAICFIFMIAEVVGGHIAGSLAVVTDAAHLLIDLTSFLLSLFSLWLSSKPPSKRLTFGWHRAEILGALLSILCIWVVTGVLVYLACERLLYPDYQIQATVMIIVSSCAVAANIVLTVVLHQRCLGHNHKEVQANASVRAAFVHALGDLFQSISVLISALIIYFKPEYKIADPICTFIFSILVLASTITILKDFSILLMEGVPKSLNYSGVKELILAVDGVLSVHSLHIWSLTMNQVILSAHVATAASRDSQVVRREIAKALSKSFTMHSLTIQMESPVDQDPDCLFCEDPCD
Description: ELISA, ZnT8-His on Ni-NTA plate, HRP-conjugated secondary antibody; curve taken as human by paragraph 166. An excerpt: (§1) FIG. 7A-7D. mAb binding specificities (FIG. 7A) mAb binding to ZnT8-His immobilized to Ni-NTA plate. Bound mAb20 (red) or mAb39 (magenta) was detected by an HRP-conjugated secondary antibody. Solid lines are least-squares fits of binding datapoints to a one-component binding process. Error bars are standard errors (n=8). (FIG. 7B) SDS-denatured mouse ZnT8-His (labeled as M) and human ZnT8-His (labeled as H) on immunoblots were detected by mAb20 or mAb39 as indicated. […] (FIG. 7C) Detection of endogenous human ZnT8 in EndoC-βH cells by mAb20 or […] immunoblotting. An equal amount of EndoC-βH lysate (5 μg total protein) was loaded to each lane. (FIG. 7D) Immunoblotting of HEK lysates with or with over-expression of a ZnT homolog as indicated. An approximately equal amount of total lysate protein (5 μg) was located to each lane, probed by either mAb20, mAb39, or anti-FALG antibody as indicated. FIG. 8. HTRF response to human ZnT8, mouse ZnT8 and human ZnT3.
(§2) Binding specificities. […] Of note, the epitope-masking effect of ZnT8 immobilization weakened the apparent binding affinities of both mAbs as compared to the affinities determined by flow-cytometry, and such a weakening effect was more pronounced for mAb39, probably due to a closer proximity of the mAb39 epitope to the C-terminal His-tag. Next, we compared the immunoreactivities of mAbs to denatured ZnT8.

Assay [2] deals with T1, human ZnT8-His. Description: ELISA on ZnT8-His on Ni-NTA plate, native against unfolded with 2% SDS. An excerpt:
FIG. 4A-4C. mAb binding stabilized ZnT8 folding (FIG. 4A) mAb binding to folded or denatured ZnT8. ZnT8-His in detergent micelles was immobilized to a Ni-NTA plate in replication w/o SDS denaturation. ELISAs against denatured (triangle) and non-denatured ZnT8 (circle) were compared for mAb20 and mAb39 as indicated. CTDA and MSA were used as a positive and negative control, respectively. Error bars are standard deviations. (FIG. 4B) mAb binding to folded ZnT8-GFP in detergent micelles. mAb20 or mAb39 was mixed with ZnT8-GFP and then the binding mixture was analyzed by size-exclusion HPLC with GFP-fluorescence detection. […] (FIG. 4C) Protection of ZnT8 unfolding. Aliquots of ZnT8 in detergent micelles were incubated with Fab20 (red), Fab39 (magenta), or Fab20+Fab39 (brown). […] After a designated time of heat denaturation as indicated, protein aggregates were removed by ultracentrifugation, and the amount of remaining ZnT8 in the supernatant was detected by mAb20 immunoblotting (upper panel). […]
Folding dependence. To compare the difference in mAb bindings to native and denatured ZnT8, we used 2% SDS to unfold immobilized ZnT8-His on a Ni-NTA plate, and then compared denatured ELISA readouts with non-denatured replicates. The native readout of mAb20 was about two-fold higher than the denatured readout (FIG. 4A), indicating a moderate selectivity for folded conformation over unfolded ZnT8. […]

The target of the next assay is T2, mouse ZnT8-His (mouse, UniProt Q8BGG0 1-367, limits assumed).
T2 construct: Over-expressed in HEK293 cells, solubilized with DDM and immobilized on Ni-NTA plates, or SDS-denatured on immunoblots; not shown: C-terminal poly-histidine tag
T2 sequence (looked up): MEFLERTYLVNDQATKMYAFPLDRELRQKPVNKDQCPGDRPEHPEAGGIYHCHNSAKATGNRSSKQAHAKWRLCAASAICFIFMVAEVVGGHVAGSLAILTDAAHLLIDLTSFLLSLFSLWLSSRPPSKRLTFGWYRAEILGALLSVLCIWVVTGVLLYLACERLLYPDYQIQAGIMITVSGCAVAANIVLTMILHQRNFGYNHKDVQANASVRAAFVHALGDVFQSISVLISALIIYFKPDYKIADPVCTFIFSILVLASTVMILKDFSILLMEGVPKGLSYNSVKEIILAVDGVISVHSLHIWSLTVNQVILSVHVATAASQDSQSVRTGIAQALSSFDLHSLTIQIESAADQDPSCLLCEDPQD
The assay can be described thus: ELISA, ZnT8-His on Ni-NTA plate, HRP-conjugated secondary antibody; binder taken from the axis label and paragraph 166; curve taken as mouse.
From the text: as §1, §2

Numbering of substitutions follows the chain as printed.

B1: mAb20 (antibody, V domains shown)
VH: QIQLVQSGPELKKPGETVKISCKASGYIFTNYPMHWVKQAPGKGLKWMGWINTYSGVPTHADDFKGRFAFSLETSANSAFLQINNLKNEDTATYFCTRSRITPTGGYAMDYWGQGTSVTVSS
VL: DVVMTQTPLSLPVSLGDQASISCRSSQSLVHSNGNTYLHWYLQKPGQSPNLLISKVSNRFSGVPERFSGSGSGTDFTLKISRVEAEDLGVYFCSQNTHVPWTFGGGTKLEIKR
notes: Mouse hybridoma mAb purified on protein A/G; In some assays it was labelled with Alexa Fluor 488 or terbium cryptate; also called monoclonal antibody mAb20; anti-ZnT8 mAb20
Consider B1, for which the “EC50 (read off the curve)” value with human ZnT8-His [1] is ~3 nM. In addition, the “ratio of native to SDS-denatured ELISA readout” value with human ZnT8-His [2] is ~2 fold.

B2: mAb39 (antibody, V domains shown)
VH: QVQLQQPGAELVKPGASVKLSCKASGYSFTTYWMHWVKQRPGQGLEWVGDINPRNGRTNYNEKSKSKATLTVDISSSTVYMQVSSLTSEDSAVYYCAIWSGAMDYWGPGTSVTVSS
VL: B1 VL with A19P, R24K, S32N, N50K, S54Y, E65D, N96T, W101P
notes: Mouse hybridoma mAb purified on protein A/G; In some assays it was labelled with Alexa Fluor 555 or d2; also called monoclonal antibody mAb39; anti-ZnT8 mAb39
As to B2, in the assay with mouse ZnT8-His, the “EC50 (read off the curve)” value was ~30 nM.
